{"source": "IntAct's records for PubMed 25910212", "parents": {"B1": {"name": "Glial cell line-derived neurotrophic factor (Homo sapiens), P39905 (parent)", "chain": "MKLWDVVAVCLVLLHTASAFPLPAGKRPPEAPAEDRSLGRRRAPFALSSDSNMPEDYPDQFDDVMDFIQATIKRLKRSPDKQMAVLPRRERNRQAAAANPENSRGKGRRGQRGKNRGCVLTAIHLNVTDLGLGYETKEELIFRYCSGSCDAAETTYDKILKNLSRNRRLVSDKVGQACCRPIAFDDDLSFLDDNLVYHILRKHSAKRCGCI"}, "B2": {"name": "Methylmalonyl-CoA epimerase, mitochondrial (Homo sapiens), Q96PE7 (parent)", "chain": "MARVLKAAAANAVGLFSRLQAPIPTVRASSTSQPLDQVTGSVWNLGRLNHVAIAVPDLEKAAAFYKNILGAQVSEAVPLPEHGVSVVFVNLGNTKMELLHPLGRDSPIAGFLQKNKAGGMHHICIEVDNINAAVMDLKKKKIRSLSEEVKIGAHGKPVIFLHPKDCGGVLVELEQA"}, "B3": {"name": "Pyridoxine-5'-phosphate oxidase (Homo sapiens), Q9NVS9 (parent)", "chain": "MTCWLRGVTATFGRPAEWPGYLSHLCGRSAAMDLGPMRKSYRGDREAFEETHLTSLDPVKQFAAWFEEAVQCPDIGEANAMCLATCTRDGKPSARMLLLKGFGKDGFRFFTNFESRKGKELDSNPFASLVFYWEPLNRQVRVEGPVKKLPEEEAECYFHSRPKSSQIGAVVSHQSSVIPDREYLRKKNEELEQLYQDQEVPKPKSWGGYVLYPQVMEFWQGQTNRLHDRIVFRRGLPTGDSPLGPMTHRGEEDWLYERLAP"}, "B4": {"name": "U4/U6 small nuclear ribonucleoprotein Prp31 (Homo sapiens), Q8WWY3 (parent)", "chain": "MSLADELLADLEEAAEEEEGGSYGEEEEEPAIEDVQEETQLDLSGDSVKTIAKLWDSKMFAEIMMKIEEYISKQAKASEVMGPVEAAPEYRVIVDANNLTVEIENELNIIHKFIRDKYSKRFPELESLVPNALDYIRTVKELGNSLDKCKNNENLQQILTNATIMVVSVTASTTQGQQLSEEELERLEEACDMALELNASKHRIYEYVESRMSFIAPNLSIIIGASTAAKIMGVAGGLTNLSKMPACNIMLLGAQRKTLSGFSSTSVLPHTGYIYHSDIVQSLPPDLRRKAARLVAAKCTLAARVDSFHESTEGKVGYELKDEIERKFDKWQEPPPVKQVKPLPAPLDGQRKKRGGRRYRKMKERLGLTEIRKQANRMSFGEIEEDAYQEDLGFSLGHLGKSGSGRVRQTQVNEATKARISKTLQRTLQKQSVVYGGKSTIRDRSSGTASSVAFTPLQGLEIVNPQAAEKKVAEANQKYFSSMAEFLKVKGEKSGLMST", "partner": "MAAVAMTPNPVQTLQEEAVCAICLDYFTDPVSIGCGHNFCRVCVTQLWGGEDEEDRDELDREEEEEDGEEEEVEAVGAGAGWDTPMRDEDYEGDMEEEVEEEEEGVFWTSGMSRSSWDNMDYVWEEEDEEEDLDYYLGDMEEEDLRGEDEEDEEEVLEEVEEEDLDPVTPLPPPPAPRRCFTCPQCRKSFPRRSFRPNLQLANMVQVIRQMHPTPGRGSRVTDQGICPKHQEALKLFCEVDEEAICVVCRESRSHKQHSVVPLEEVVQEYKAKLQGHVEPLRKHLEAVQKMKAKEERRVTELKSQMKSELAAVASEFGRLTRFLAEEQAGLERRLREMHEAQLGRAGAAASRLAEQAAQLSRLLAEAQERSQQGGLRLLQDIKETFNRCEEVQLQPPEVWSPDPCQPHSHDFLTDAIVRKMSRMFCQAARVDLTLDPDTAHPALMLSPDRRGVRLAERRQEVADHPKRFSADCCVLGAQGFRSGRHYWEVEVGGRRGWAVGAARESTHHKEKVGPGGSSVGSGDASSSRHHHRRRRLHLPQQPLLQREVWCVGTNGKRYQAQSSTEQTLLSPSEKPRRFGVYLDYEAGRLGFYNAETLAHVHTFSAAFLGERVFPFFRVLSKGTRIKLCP"}, "B5": {"name": "U4/U6 small nuclear ribonucleoprotein Prp31 (Homo sapiens), Q8WWY3 (parent)", "chain": "B4 chain", "partner": "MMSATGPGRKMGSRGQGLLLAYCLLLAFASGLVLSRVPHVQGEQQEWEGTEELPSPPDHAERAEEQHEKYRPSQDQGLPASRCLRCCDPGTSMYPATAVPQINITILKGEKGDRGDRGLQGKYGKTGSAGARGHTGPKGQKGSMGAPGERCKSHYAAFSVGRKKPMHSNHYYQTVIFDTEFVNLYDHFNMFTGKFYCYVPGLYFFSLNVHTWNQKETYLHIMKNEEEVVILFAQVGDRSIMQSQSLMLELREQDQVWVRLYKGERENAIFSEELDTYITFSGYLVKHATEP"}, "B6": {"name": "Plasma membrane ascorbate-dependent reductase CYBRD1 (Homo sapiens), Q53TN4 (parent)", "chain": "MAMEGYWRFLALLGSALLVGFLSVIFALVWVLHYREGLGWDGSALEFNWHPVLMVTGFVFIQGIAIIVYRLPWTWKCSKLLMKSIHAGLNAVAAILAIISVVAVFENHNVNNIANMYSLHSWVGLIAVICYLLQLLSGFSVFLLPWAPLSLRAFLMPIHVYSGIVIFGTVIATALMGLTEKLIFSLRDPAYSTFPPEGVFVNTLGLLILVFGALIFWIVTRPQWKRPKEPNSTILHPNGGTEQGARGSMPAYSGNNMDKSDSELNSEVAARKRNLALDEAGQRSTM"}, "B7": {"name": "Glutathione S-transferase A2 (Homo sapiens), P09210 (parent)", "chain": "MAEKPKLHYSNIRGRMESIRWLLAAAGVEFEEKFIKSAEDLDKLRNDGYLMFQQVPMVEIDGMKLVQTRAILNYIASKYNLYGKDIKEKALIDMYIEGIADLGEMILLLPFSQPEEQDAKLALIQEKTKNRYFPAFEKVLKSHGQDYLVGNKLSRADIHLVELLYYVEELDSSLISSFPLLKALKTRISNLPTVKKFLQPGSPRKPPMDEKSLEESRKIFRF", "partner": "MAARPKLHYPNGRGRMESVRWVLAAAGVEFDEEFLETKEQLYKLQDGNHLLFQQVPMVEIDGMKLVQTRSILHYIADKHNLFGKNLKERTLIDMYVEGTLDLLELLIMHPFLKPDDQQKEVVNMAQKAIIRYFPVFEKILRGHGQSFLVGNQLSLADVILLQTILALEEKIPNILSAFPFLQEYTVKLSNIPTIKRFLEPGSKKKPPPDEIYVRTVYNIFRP"}}, "data": [{"variants_of": "B1", "details": "with AGTRAP", "values": [{"variant": "D150N", "effect of a mutation on the interaction": "with no effect"}, {"variant": "T154S", "effect of a mutation on the interaction": "with no effect"}]}, {"variants_of": "B2", "details": "with AGTRAP", "values": [{"variant": "A76V", "effect of a mutation on the interaction": "with no effect"}, {"variant": "R143C", "effect of a mutation on the interaction": "with no effect"}, {"variant": "R143H", "effect of a mutation on the interaction": "with no effect"}]}, {"variants_of": "B2", "details": "with CMTM5, Q96DZ9-2", "values": [{"variant": "A76V", "effect of a mutation on the interaction": "with no effect"}, {"variant": "R143C", "effect of a mutation on the interaction": "with no effect"}, {"variant": "R143H", "effect of a mutation on the interaction": "with no effect"}]}, {"variants_of": "B3", "details": "with AGTRAP", "values": [{"variant": "R95C", "effect of a mutation on the interaction": "disrupting interaction strength"}, {"variant": "R95H", "effect of a mutation on the interaction": "disrupting interaction strength"}, {"variant": "R116Q", "effect of a mutation on the interaction": "with no effect"}, {"variant": "R229W", "effect of a mutation on the interaction": "disrupting interaction strength"}]}, {"variants_of": "B3", "details": "with CMTM5, Q96DZ9-2", "values": [{"variant": "R95C", "effect of a mutation on the interaction": "disrupting interaction strength"}, {"variant": "R95H", "effect of a mutation on the interaction": "disrupting interaction strength"}, {"variant": "R116Q", "effect of a mutation on the interaction": "with no effect"}, {"variant": "R229W", "effect of a mutation on the interaction": "disrupting interaction strength"}]}, {"variants_of": "B4", "details": "with tri41_human TRIM41, Q8WV44", "values": [{"variant": "L107V", "effect of a mutation on the interaction": "with no effect"}]}, {"variants_of": "B5", "details": "with C1QTNF1, Q9BXJ1-2", "values": [{"variant": "L107V", "effect of a mutation on the interaction": "with no effect"}]}, {"variants_of": "B6", "details": "with stx4_human STX4, Q12846", "values": [{"variant": "R226H", "effect of a mutation on the interaction": "with no effect"}]}, {"variants_of": "B7", "details": "with gsta4_human GSTA4, O15217", "values": [{"variant": "P110S", "effect of a mutation on the interaction": "with no effect"}]}]}
